In patent US5882644A, “Monoclonal antibodies specific for the platelet derived growth factor β receptor and methods of use thereof” (Protein Design Labs, Inc., priority 1996, dated 1999):
Entries after “also recorded” stand apart in the source; their conditions may differ.

Assays:
PDGF-R β [1] = assay: Flow cytometry (FACS) staining of Sp2/0 transfectant cells expressing PDGF-R β; assay type: binding, human; details: 50 ng antibody; vs untransfected Sp2/0 cells
Protocol: The cells were washed with cold PBS, incubated for an additional 30 minutes with FITC-labeled goat-anti-human Ig (Tago Immunologicals) and analyzed by flow cytometry (FACS).
The cells were washed with cold PBS, incubated for an additional 30 minutes with FITC-labeled goat-anti-human Ig (Tago Immunologicals) and analyzed by flow cytometry (FACS). […] Neither an irrelevant control antibody nor the FITC-labeled goat antibody alone stained either cell type.

PDGF-R β [2] = assay: Competitive binding with 125I-PDGF BB on transfectant cells expressing PDGF-R β; design: species or system human; details: 4° C.
Protocol: To determine the ability of muM4TS.11 and muM4TS.22 to block binding of PDGF BB to PDGF-R β, the following competitive binding experiments were performed. Transfectant cells expressing PDGF-R β were harvested, washed twice with cold DMEM, and resuspended at 10^6 cells/ml in DMEM. The assay was carried out in triplicate by incubating 100 μl of the cell suspension with either: 1) no antibody (to determine total binding); 2) varying concentrations of antibody; or 3) 100 ng cold PDGF BB (to saturate specific binding sites and determine non-specific binding) for 15 minutes at 4° C. Each sample received 1.0 ng ^125 I-labeled PDGF BB, and was incubated for an additional 60 min at 4° C. Unbound ^125 I-labeled PDGF BB was separated from that bound to the cell by layering the sample over a mixture of 80% dibutylphthalate, 20% olive oil in a microfuge tube, and microfuging briefly to pellet the cells through the oil mixture. The tubes were placed in dry ice to freeze the contents, the tip of the tube containing the cell pellet was cut off into a vial, and radioactivity was determined in a gamma counter.
To assess the ability of HuM4TS.22 to block the binding of PDGF BB to its receptor, competitive binding experiments of HuM4TS.22 with ^125 I-PDGF BB were performed according to the method described in Example 3.
To assess the ability of muM4TS.11 and HuM4TS.11 to block the binding of PDGF BB to the PDGF β receptor, competitive binding experiments of these antibodies with ^125 I-PDGF BB were performed according to the method described in Example 3.

PDGF-R β [3] = assay: Competition with 125I-labeled murine antibody tracer on Sp2/0 PDGF-R β transfectant cells; assay type: binding, human; details: Sp2/0 PDGF-R β transfectants; for binding affinity Ka: calculated from competitive binding data
Protocol: To assess the ability of HuM4TS.22 to compete with muM4TS.22 for receptor binding, increasing concentrations of the two antibodies were respectively incubated on ice for one hour with Sp2/0 PDGF-R β transfectant cells and a fixed amount of tracer ^125 I-labeled muAb. The sample tubes were processed as in the blocking experiment just described.
To assess the ability of HuM4TS.11 to compete with the muAb for receptor binding, increasing concentrations of the two antibodies were respectively incubated on ice for one hour with Sp2/0 PDGF-R β transfectant cells and a fixed amount of tracer ^125 I-labeled M4TS.11. The sample tubes were processed as in the blocking experiment described. […] The binding affinities calculated from the data were: Ka =5×10^8 M^-1 for the muAb and 3×10^7 M^-1 for the HuAb.

[4] = test system: CHO transfectant cell line expressing PDGF-R β (CHO C4); assay: Inhibition of PDGF BB-induced proliferation (3H-thymidine) of CHO C4 cells; assay type: cell-based, Chinese hamster; details: for inhibition of PDGF BB-induced proliferation: 50 ng/ml PDGF BB, sufficient antibody concentration
Protocol: To determine the ability of muM4TS.11 and muM4TS.22 to block PDGF-mediated proliferation, a CHO transfectant cell line expressing PDGF-R β (CHO C4) was generated, as described above. Proliferation of this line, as measured by incorporation of ^3 H-thymidine by DNA synthesis, is stimulated several-fold by PDGF BB. The CHO PDGF-R β transfectants were plated in a 96-well tissue culture plate at about 50,000 cells/well in Ham's F-12+10% FCS and incubated for 1-2 days. The medium was removed, and the cells were washed once with serum-free medium (Ham's F-12+1 mg/ml BSA) and incubated in this media for 1-2 days to put them in a quiescent state. The appropriate amount of antibody in serum-free medium was added, and after 1-3 hours, 50 ng/ml PDGF BB was added. After overnight incubation, 1 μCi ^3 H-thymidine was added, and after a final 4 hour incubation, the cells were harvested using a PHD cell harvester (Cambridge Technology) and analyzed with a scintillation counter.

[5] = test system: PDGF-R β deletion fusion proteins; assay: ELISA epitope mapping with PDGF-R β deletion fusion proteins; assay type: binding, human; details: for binding to protein D5 (fifth domain only): separate experiment
Text: To localize the binding sites of the M4TS antibodies on the PDGF-R, a series of PDGF-R β deletion mutants, each consisting of one or more adjacent domains of the extracellular portion of the receptor, was constructed by standard methods including PCR. The deletion constructs were each cloned into an expression plasmid (FIG. 13A) where they were fused to the constant region of the human lambda-1 immunoglobulin light chain, to facilitate detection in ELISA. The constructs were as follows (see FIG. 13B):
These PDGF-R β deletion fusion proteins were transiently expressed, by transfecting 10 μg of the respective expression plasmids into approximately 10^7 S194 mouse myeloma cells (ATCC TIB 19) using the DEAE-dextran method in accordance with the method described by Queen et al. (1984) Mol. Cell. Biol. 4:1042. After the transfected cells had died (4-5 days) and been removed by centrifugation, the culture supernatants containing the PDGF-R β deletion proteins were used in ELISA assays, 100 μl/well. First, the relative levels of the various PDGF-R β deletion proteins were measured in an ELISA where the plate was coated with goat anti-human lambda antibody (Tago) and the proteins detected with HRP-conjugated goat anti-human lambda antibody. […] To determine the ability of the antibodies to bind to each deletion protein, an ELISA was performed in which goat anti-human lambda antibody was used to coat the plate, followed by the cell supernatant and then 0.1 μg of the appropriate antibody, and then bound antibody detected with HRP-conjugated goat-anti-mouse Ig or goat-anti-human Ig antibody as appropriate (Tago). As a positive control, purified soluble PDGF-R β (Example 1) was coated directly on certain wells of the plate (denoted D1-5 in FIG. 14).

[6] = biological target: T1, PDGF-R β expressed on transfectant cells (CHO PDGF-R β transfectants, CHO C4 line); Sp2/0 PDGF-R β … (human, UniProt P09619); assay: competition with 125I-labeled muM4TS.11 on Sp2/0 PDGF-R β transfectant cells
Protocol: (§1) Figure 11: FIG. 11 is a graph depicting competitive binding of muM4TS.11 (closed squares) and HuM4TS.11 (open squares) and HuM4TS.11(gamma 1) (open diamonds). Increasing concentrations of cold competitor antibodies were incubated with the Sp2/0 transfectants expressing PDGF-R β in the presence of radiolabeled tracer muM4TS.11, and the ratio of bound/free radioactivity determined. The results shown are mean values of triplicate samples.
(§2) To assess the ability of HuM4TS.11 to compete with the muAb for receptor binding, increasing concentrations of the two antibodies were respectively incubated on ice for one hour with Sp2/0 PDGF-R β transfectant cells and a fixed amount of tracer ^125I-labeled M4TS.11. The sample tubes were processed as in the blocking experiment described. HuM4TS.11 competed less well than muM4TS.11 (FIG. 11).
(§3) Loss of binding affinity due to the gamma4 isotype has been observed in another antibody (Horgan et al. (1993) J. Immunol. 150:5400), and may be due to structural constraints imposed on the particular antibody by the gamma4 hinge region. See, Horgan et al. (1993).

[7] = biological target: T1, PDGF-R β expressed on transfectant …; assay: competition with 125I-labeled muM4TS.11 on Sp2/0 PDGF-R β transfectant cells (FIG. 11)
Protocol: as §1, §2, §3

rat PDGF-R β = rat PDGF-R β (rat, UniProt Q05030); assay: cell-based or functional assay
[8] = biological target: T1, PDGF-R β expressed on transfectant …; assay: competition with 125I-labeled M4TS.11 on Sp2/0 PDGF-R β transfectant cells
Protocol: as §1, §2

| Molecule | FACS staining of Sp2/0 PDGF-R β transfectant cells (PDGF-R β [1]) | blocking of 125I-PDGF BB binding to PDGF-R β (PDGF-R β [2]) | competition with labeled murine antibody for receptor binding / binding affinity, in words (PDGF-R β [3]) | binding affinity Ka (PDGF-R β [3]) | inhibition of PDGF-mediated proliferation compared with another antibody [4] | inhibition of PDGF BB-induced proliferation [4] | binding to deletion proteins containing only first through third domains ([5]; 0.1 μg antibody) | binding to protein D1-4 ([5]; 0.1 μg antibody) | binding to protein D5 (fifth domain only) [5] | Ka [6] | fold difference in competition against muM4TS.11 [7] | IC50 of inhibition of PDGF BB-stimulated proliferation of rat aortic smooth muscle cells (rat PDGF-R β) | Ka [8] | binding to deletion proteins containing only first through second domains ([5]; 0.1 μg antibody) | binding to protein D1-3 ([5]; 0.1 μg antibody) | binding to protein D3 (third domain only) ([5]; 0.1 μg antibody) |
| --- | --- | --- | --- | --- | --- | --- | --- | --- | --- | --- | --- | --- | --- | --- | --- | --- |
| HuM4TS.11: humanized muM4TS.11, human III-2R framework, gamma4 constant region; SEQ ID NOS:14 and 16 (antibody, V domains shown) VL: METDTLLLWVLLLWVPGSTGDIQMTQSPSSLSASVGDRVTITCRASESVDSYGNSFMHWYQQKPGKAPKLLIYRASNLESGIPSRFSGSGSRTDFTLTISSLQPEDVATYYCQQSNEDPPTFGQGTKVEIK VH: MGWSWIFLFLLSGTAGVHSQVQLVQSGAEVKKPGASVKVSCKASGYTFTNCWMHWVRQAPGQGLEWIGYINPTTGYSEYNQNFKDKATITADKSTSTAYMELSSLRSEDTAVYYCTSNYGHYDWFGNWGQGTLVT | stained the transfectant cells but did not stain untransfected Sp2/0 cells at all | neither muM4TS.11 nor HuM4TS.11 were able to inhibit binding of PDGF BB to its receptor | competed less well than muM4TS.11 | 3e+07 M⁻¹ | nearly as well as muM4TS.11; also recorded: about equally well | almost completely inhibited the stimulation of proliferation by PDGF BB | do not bind | do bind to protein D1-4 | none of muM4TS.11 and HuM4TS.11, muM4TS.22 and HuM4TS.22 bound to it |  |  |  |  |  |  |  |
| HuM4TS.11(gamma1) (antibody, V domains shown) VH: QVQLVQSGAEVKKPGASVKVSCKASGYTFTNCWMHWVRQAPGQGLEWIGYINPTTGYSEYNQNFKDKATITADKSTSTAYMELSSLRSEDTAVYYCTSNYGHYDWFGNWGQGTLVT VL: DIQMTQSPSSLSASVGDRVTITCRASESVDSYGNSFMHWYQQKPGKAPKLLIYRASNLESGIPSRFSGSGSRTDFTLTISSLQPEDVATYYCQQSNEDPPTFGQGTKVEIK |  |  |  |  |  |  |  |  |  | 1.6e+08 M⁻¹ | ~3 fold |  |  |  |  |  |
| muM4TS.11 (antibody, V domains shown) VH: QVQLQQSGAEVAKPGASVKMSCKASGYTFTNCWMHWVKQRPGQGLEWIGYINPTTGYSEYNQNFKDKATLTADKSSNTAYIQLSSLTSEDSAVYYCTSNYGHYDWFANWGQGTLVT VL: DIVLTQSPPSLAVSLGQRATISCRASESVDSYGNSFMHWYQQKPGQPPKLLIYRASNLESGIPARFSGGGSRTDFTLTINPVEADDVATYYCQQSNEDPPTFGGGTKLEIK |  |  |  |  |  |  |  |  |  |  |  | ~0.5 µg/mL | 5e+08 M⁻¹ |  |  |  |
| HuM4TS.22: humanized muM4TS.22, human IC4 framework, gamma4 constant region; SEQ ID NOS:6 and 8 (antibody, V domains shown) VL: MRVLAELLGLLLFCFLGVRCDIQMTQSPSSLSASVGDRVTITCHASQNINVWLSWYQQKPGKAPKLLIYKASNLHTGVPSRFSGSGSGTGFTLTISSLQPEDIATYYCQQGQSFPFTFGGGTKVEIK VH: MAVLALLLCLVTFPSCALSQVQLQESGPGLVKPSETLSLTCTVSGFSLTNYAINWVRQPPGKGLEWLGIIWTGGGTSYNSALKSRLTISKDTSKNQVSLKLSSVTAADTAVYYCARTGTRGYFFDYWGQGTLVTVSS | stained the transfectant cells but did not stain untransfected Sp2/0 cells at all | reduced the binding of radiolabelled PDGF BB ligand to the PDGF-R β transfectant cells to the non-specific level; also recorded: did have the ability to block binding of PDGF BB to PDGF-R β | competed with equal efficiencies | 4e+08 M⁻¹ | about equally as well as muM4TS.22 | almost completely inhibited the stimulation of proliferation by PDGF BB |  |  | none of muM4TS.11 and HuM4TS.11, muM4TS.22 and HuM4TS.22 bound to it |  |  |  |  | do not bind | do bind to protein D1-3 | bind to the protein D3 |
